For 2 molecules, Kd, koff and kon results are on record in paper PMC5270677, “Quiescin-sulfhydryl oxidase inhibits prion formation in vitro” (Aging (Albany NY), 2016).

The target of the assay is T1, Quiescin-sulfhydryl oxidase (QSOX), recombinant human (human, UniProt O00391 30-709).
T1 construct: also called Human Qsox; recombinant QSOX
T1 sequence (looked up): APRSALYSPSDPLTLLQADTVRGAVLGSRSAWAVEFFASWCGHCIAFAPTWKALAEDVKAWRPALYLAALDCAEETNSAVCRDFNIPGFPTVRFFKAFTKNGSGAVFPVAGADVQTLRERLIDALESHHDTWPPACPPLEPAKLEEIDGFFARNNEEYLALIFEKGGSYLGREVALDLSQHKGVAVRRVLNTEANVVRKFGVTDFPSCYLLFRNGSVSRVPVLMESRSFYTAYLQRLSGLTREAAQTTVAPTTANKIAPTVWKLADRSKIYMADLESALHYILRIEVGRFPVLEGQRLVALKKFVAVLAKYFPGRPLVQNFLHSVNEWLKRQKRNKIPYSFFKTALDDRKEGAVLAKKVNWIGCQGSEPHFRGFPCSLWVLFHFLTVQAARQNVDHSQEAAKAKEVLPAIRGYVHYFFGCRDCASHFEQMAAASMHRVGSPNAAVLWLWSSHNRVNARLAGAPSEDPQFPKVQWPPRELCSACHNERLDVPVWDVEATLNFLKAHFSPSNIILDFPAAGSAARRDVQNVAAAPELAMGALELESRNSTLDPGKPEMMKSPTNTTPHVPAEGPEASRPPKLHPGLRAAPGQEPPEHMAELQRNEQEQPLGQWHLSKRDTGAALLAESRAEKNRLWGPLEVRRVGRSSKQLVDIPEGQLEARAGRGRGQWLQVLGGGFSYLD
In words: SPR; Biacore 3000; […]; 30 ul/min in PBS, 0.05% Tween 20, 3 mM EDTA at 25°C; 1:1 Langmuir model; […]. Conditions: both partners purified. (In SPR one partner is held on a chip, and binding of the other changes the refractive index at the surface.)

B1: recombinant full-length mouse PrP, MoPrP(23-230) (natural protein)
chain: not shown
notes: also called full-length moPrP (PrP23-231, in the abstract)
In the case of B1, the Kd is 2 nM, the koff amounted to 6.81e-05 s⁻¹ and the kon amounted to 33400 M⁻¹ s⁻¹.

B2: recombinant full-length human PrP, HuPrP(23-231) (natural protein)
chain: not shown
Turning to B2, the Kd was determined as 1.7 nM, the koff was determined as 2e-05 s⁻¹ and the kon amounted to 11800 M⁻¹ s⁻¹.

A word on the Kd: it is a measure of binding affinity in units of concentration. As a reminder, the koff is a measure of how fast the partners let go of each other. For orientation: kon means a measure of how fast the partners come together.
